Source: the supplement of paper PMC10201428
± gives the standard deviation of the averaged measurements.

Tests used:
[1] = system: VchCAST RNA-guided transposition machinery (E. coli BL21(DE3) host, lacZ target); assay: relative integration efficiency (T-RL orientation) vs wild-type transposon end (log2 (normalized fold change)); transposon end mutated: right end (5 bp flank + 75 bp right end); higher = more efficient transposition
Method in brief: (§1)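 Barcoded pools of 1549 left-end or 1849 right-end transposon variants were cloned into a pUC57 mini-transposon donor. Each pool was co-transformed with a T7-driven effector plasmid (CRISPR array, tniQ-cas8-cas7-cas6, tnsA-tnsB-tnsC) into E. coli BL21(DE3) and plated with 0.1 mM IPTG at 37°C for 18 h. Input plasmids and genomic integration junctions were PCR-amplified and Illumina-sequenced, with two biological output replicates and four wild-type barcodes as reference. Relative integration efficiency is output/input barcode abundance fold change, normalised to wild-type barcodes and log-transformed.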

[2] = system: VchCAST RNA-guided transposition machinery (E. coli BL21(DE3) host, lacZ target); assay: relative integration efficiency (T-LR orientation) vs wild-type transposon end (log2 (normalized fold change)); transposon end mutated: right end (5 bp flank + 75 bp right end); higher = more efficient transposition
Method in brief: as §1

Sequence | relative integration efficiency (log2) [1] | relative integration efficiency (log2) [2]
ACATTTGTTGATACAACCATAAAATCATAATTACACCCATCAATTGATAATTATCACACCCAATTTAACTATAACGCTCTGATCATAGTCAGACCAACATTGCTACGACCCGTATTCGCACCGACAC | -4.01 ± 0.22 | -0.27 ± 0.36
ACATTTGTTGATACAACCATAAAATCATAATTACACCCATCAATTGATAATTATCACACCCCATTTAACTATAACGCTCTGATCATAGTCAGACCAACATTGCTACGACCCGTATTCGCACCGACAC | -4.31 ± 0.11 | -0.773 ± 0.047
ACATTTGTTGATACAACCATAAAATCATAATTACACCCATCAATTGATAATTATCCCACCCAATTTAACTATAACGCTCTGATCATAGTCAGACCAACATTGCTACGACCCGTATTCGCACCGACAC | -3.92 ± 0.52 | -0.195 ± 0.066
ACATTTGTTGATACAACCATAAAATCATAATTACACCCATCAATTGATAATTATCCCACCCCATTTAACTATAACGCTCTGATCATAGTCAGACCAACATTGCTACGACCCGTATTCGCACCGACAC | -4.292 ± 0.026 | -0.633 ± 0.39
ACATTTGTTGATACAACCATAAAATCATAATTACCCCCATAAATTGATAATTATCACACCCAATTTAACTATAACGCTCTGATCATAGTCAGACCAACATTGCTACGACCCGTATTCGCACCGACAC | -3.09 ± 0.33 | 0.699 ± 0.11
ACATTTGTTGATACAACCATAAAATCATAATTACCCCCATAAATTGATAATTATCACACCCCATTTAACTATAACGCTCTGATCATAGTCAGACCAACATTGCTACGACCCGTATTCGCACCGACAC | -3.3 ± 0.19 | 0.532 ± 0.1
ACATTTGTTGATACAACCATAAAATCATAATTACCCCCATAAATTGATAATTATCCCACCCAATTTAACTATAACGCTCTGATCATAGTCAGACCAACATTGCTACGACCCGTATTCGCACCGACAC | -0.611 ± 0.71 | 3.39 ± 0.37
ACATTTGTTGATACAACCATAAAATCATAATTACCCCCATAAATTGATAATTATCCCACCCCATTTAACTATAACGCTCTGATCATAGTCAGACCAACATTGCTACGACCCGTATTCGCACCGACAC | -3.28 ± 0.32 | 0.676 ± 0.046
ACATTTGTTGATACAACCATAAAATCATAATTACCCCCATCAATTGATAATTATCACACCCAATTTAACTATAACGCTCTGATCATAGTCAGACCAACATTGCTACGACCCGTATTCGCACCGACAC | -5.12 ± 0.12 | -2.04 ± 0.46
ACATTTGTTGATACAACCATAAAATCATAATTACCCCCATCAATTGATAATTATCACACCCCATTTAACTATAACGCTCTGATCATAGTCAGACCAACATTGCTACGACCCGTATTCGCACCGACAC | -5.34 ± 0.18 | -1.5 ± 0.28
ACATTTGTTGATACAACCATAAAATCATAATTACCCCCATCAATTGATAATTATCCCACCCAATTTAACTATAACGCTCTGATCATAGTCAGACCAACATTGCTACGACCCGTATTCGCACCGACAC | -5.51 ± 0.13 | -1.33 ± 0.49
ACATTTGTTGATACAACCATAAAATCATAATTACCCCCATCAATTGATAATTATCCCACCCCATTTAACTATAACGCTCTGATCATAGTCAGACCAACATTGCTACGACCCGTATTCGCACCGACAC | -5.42 ± 0.086 | -2.4 ± 0.19
ACATTTGTTGATACAACCATAAAATCATAATTCACCCATAAATTGATAATTATCACACCCACATTTAACTATAACGCTCTGATCATAGTCAGACCAACATTGCTACGACCCGTATTCGCACCGACAC | -4.53 ± 0.24 | -0.0705 ± 0.067
ACATTTGTTGATACAACCATAAAATCATAATTCACCCCTAAATTGATAATTATCACACCCACATTTAACTATAACGCTCTGATCATAGTCAGACCAACATTGCTACGACCCGTATTCGCACCGACAC | -6.26 ± 0.19 | -1.89 ± 0.27
ACATTTGTTGATACAACCATAAAATCATCATTACACCCATAAATTGATAATTATCACACCCAATTTAACTATAACGCTCTGATCATAGTCAGACCAACATTGCTACGACCCGTATTCGCACCGACAC | -3.16 ± 0.25 | 0.617 ± 0.13
ACATTTGTTGATACAACCATAAAATCATCATTACACCCATAAATTGATAATTATCACACCCCATTTAACTATAACGCTCTGATCATAGTCAGACCAACATTGCTACGACCCGTATTCGCACCGACAC | -3.39 ± 0.35 | 0.57 ± 0.096

Sequence | relative integration efficiency (log2) [1] | relative integration efficiency (log2) [2]
ACATTTGTTGATACAACCATAAAATCATCATTACACCCATAAATTGATAATTATCCCACCCAATTTAACTATAACGCTCTGATCATAGTCAGACCAACATTGCTACGACCCGTATTCGCACCGACAC | -3.07 ± 0.5 | 0.728 ± 0.058
ACATTTGTTGATACAACCATAAAATCATCATTACACCCATAAATTGATAATTATCCCACCCCATTTAACTATAACGCTCTGATCATAGTCAGACCAACATTGCTACGACCCGTATTCGCACCGACAC | -2.81 ± 0.49 | 0.992 ± 0.31
ACATTTGTTGATACAACCATAAAATCATCATTACACCCATCAATTGATAATTATCACACCCAATTTAACTATAACGCTCTGATCATAGTCAGACCAACATTGCTACGACCCGTATTCGCACCGACAC | -4.74 ± 0.38 | -0.508 ± 0.42
ACATTTGTTGATACAACCATAAAATCATCATTACACCCATCAATTGATAATTATCACACCCCATTTAACTATAACGCTCTGATCATAGTCAGACCAACATTGCTACGACCCGTATTCGCACCGACAC | -4.88 ± 0.26 | -1.24 ± 0.14
ACATTTGTTGATACAACCATAAAATCATCATTACACCCATCAATTGATAATTATCCCACCCAATTTAACTATAACGCTCTGATCATAGTCAGACCAACATTGCTACGACCCGTATTCGCACCGACAC | -4.67 ± 0.2 | -1.17 ± 0.061
ACATTTGTTGATACAACCATAAAATCATCATTACACCCATCAATTGATAATTATCCCACCCCATTTAACTATAACGCTCTGATCATAGTCAGACCAACATTGCTACGACCCGTATTCGCACCGACAC | -4.36 ± 0.26 | -1.08 ± 0.22
ACATTTGTTGATACAACCATAAAATCATCATTACCCCCATAAATTGATAATTATCACACCCAATTTAACTATAACGCTCTGATCATAGTCAGACCAACATTGCTACGACCCGTATTCGCACCGACAC | -4.04 ± 0.25 | -0.419 ± 0.52
ACATTTGTTGATACAACCATAAAATCATCATTACCCCCATAAATTGATAATTATCACACCCCATTTAACTATAACGCTCTGATCATAGTCAGACCAACATTGCTACGACCCGTATTCGCACCGACAC | -3.71 ± 0.07 | -0.211 ± 0.014
ACATTTGTTGATACAACCATAAAATCATCATTACCCCCATAAATTGATAATTATCCCACCCAATTTAACTATAACGCTCTGATCATAGTCAGACCAACATTGCTACGACCCGTATTCGCACCGACAC | -3.815 ± 0.027 | 0.215 ± 0.23
ACATTTGTTGATACAACCATAAAATCATCATTACCCCCATAAATTGATAATTATCCCACCCCATTTAACTATAACGCTCTGATCATAGTCAGACCAACATTGCTACGACCCGTATTCGCACCGACAC | -3.69 ± 0.077 | -0.0125 ± 0.058
ACATTTGTTGATACAACCATAAAATCATCATTACCCCCATCAATTGATAATTATCACACCCAATTTAACTATAACGCTCTGATCATAGTCAGACCAACATTGCTACGACCCGTATTCGCACCGACAC | -5.41 ± 0.15 | -1.24 ± 0.5
ACATTTGTTGATACAACCATAAAATCATCATTACCCCCATCAATTGATAATTATCACACCCCATTTAACTATAACGCTCTGATCATAGTCAGACCAACATTGCTACGACCCGTATTCGCACCGACAC | -5.76 ± 0.07 | -1.95 ± 0.53
ACATTTGTTGATACAACCATAAAATCATCATTACCCCCATCAATTGATAATTATCCCACCCAATTTAACTATAACGCTCTGATCATAGTCAGACCAACATTGCTACGACCCGTATTCGCACCGACAC | -5.47 ± 0.095 | -1.26 ± 0.14
ACATTTGTTGATACAACCATAAAATCATCATTACCCCCATCAATTGATAATTATCCCACCCCATTTAACTATAACGCTCTGATCATAGTCAGACCAACATTGCTACGACCCGTATTCGCACCGACAC | -5.09 ± 0.14 | -1.6 ± 0.036
ACATTTGTTGATACAACCATAAAATCATCATTCACCCATAAATTGATAATTATCACACCCACATTTAACTATAACGCTCTGATCATAGTCAGACCAACATTGCTACGACCCGTATTCGCACCGACAC | -5.68 ± 0.095 | -1.73 ± 0.67
ACATTTGTTGATACAACCATAAAATCATCATTCACCCCTAAATTGATAATTATCACACCCACATTTAACTATAACGCTCTGATCATAGTCAGACCAACATTGCTACGACCCGTATTCGCACCGACAC | -5.66 ± 0.14 | -1.37 ± 0.066
